Experimental data reported in US20240425606A1, “ANTI-IL-11RA ANTIBODIES” (Lassen Therapeutics 1, Inc., priority 2021, published 2024).
Changes are numbered by the printed parent chain.

T1: hIL-1 IR (Homo sapiens, UniProt Q14626)
T1 sequence (Q14626 23-422): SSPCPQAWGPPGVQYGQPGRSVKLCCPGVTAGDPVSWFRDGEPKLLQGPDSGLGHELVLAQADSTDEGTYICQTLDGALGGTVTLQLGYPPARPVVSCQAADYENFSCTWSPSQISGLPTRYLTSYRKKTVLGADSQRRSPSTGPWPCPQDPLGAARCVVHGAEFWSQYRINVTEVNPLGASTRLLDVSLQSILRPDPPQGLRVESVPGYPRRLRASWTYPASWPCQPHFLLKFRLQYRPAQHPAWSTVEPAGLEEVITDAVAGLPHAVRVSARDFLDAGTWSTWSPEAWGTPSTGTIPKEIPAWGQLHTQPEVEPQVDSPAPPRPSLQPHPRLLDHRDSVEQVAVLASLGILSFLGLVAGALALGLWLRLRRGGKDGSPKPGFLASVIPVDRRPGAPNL

B1: mAb28: anti-IL-11Rα antibody; VH SEQ ID NO: 247, VL SEQ ID NO: 248; heavy chain Kabat position 31 variant of mAb5 (antibody, V domains shown)
VH: EVQLLESGGGLVQPGGSLRLSCAASGFTFSRYSMTWVRQAPGKGLEWVSSIVPYGDLTQYADSVKGRFTISRDNSKNTLYLQMNSLRAEDTAVYYCAKGPGWGSFDLWGRGTLVTVSS
VL: DIQMTQSPSSLSASVGDRVTITCQASQDINNYLNWYQQKPGKAPKLLIYDASNLQTGVPSRFSGSGSGTDFTFTISSLQPEDIATYYCQQHESQSPTFGPGTKVDIK
modifications: mAb28 VH Chain; mAb28 VL Chain
notes: anti-IL-11Rα antibody; heavy chain Kabat position 31 variant of mAb5
B2: mAb19: anti-IL-11Rα antibody; VH SEQ ID NO: 229, VL SEQ ID NO: 230; heavy chain Kabat position 31 variant of mAb5 (antibody, V domains shown)
VH: B1 VH with R31F
VL: B1 VL
modifications: mAb19 VH Chain; mAb19 VL Chain
notes: as for B1
B3: mAb17: anti-IL-11Rα antibody; VH SEQ ID NO: 225, VL SEQ ID NO: 226; heavy chain Kabat position 31 variant of mAb5 (antibody, V domains shown)
VH: B1 VH with R31D
VL: B1 VL
modifications: mAb17 VH Chain; mAb17 VL Chain
notes: as for B1
B4: mAb32: anti-IL-11Rα antibody; VH SEQ ID NO: 255, VL SEQ ID NO: 256; heavy chain Kabat position 31 variant of mAb5 (antibody, V domains shown)
VH: B1 VH with R31Y
VL: B1 VL
modifications: mAb32 VH Chain; mAb32 VL Chain
notes: as for B1
B5: mAb18: anti-IL-11Rα antibody; VH SEQ ID NO: 227, VL SEQ ID NO: 228; heavy chain Kabat position 31 variant of mAb5 (antibody, V domains shown)
VH: B1 VH with R31E
VL: B1 VL
modifications: mAb18 VH Chain; mAb18 VL Chain
notes: as for B1
B6: mAb16: anti-IL-11Rα antibody; VH SEQ ID NO: 223, VL SEQ ID NO: 224; heavy chain Kabat position 31 variant of mAb5 (antibody, V domains shown)
VH: B1 VH with R31A
VL: B1 VL
modifications: mAb16 VH Chain; mAb16 VL Chain
notes: as for B1
B7: mAb30: anti-IL-11Rα antibody; VH SEQ ID NO: 251, VL SEQ ID NO: 252; heavy chain Kabat position 31 variant of mAb5 (antibody, V domains shown)
VH: B1 VH with R31T
VL: B1 VL
modifications: mAb30 VH Chain; mAb30 VL Chain
notes: as for B1

These molecules were tested against T1, hIL-1 IR (assay: Alternate biolayer interferometry assay (AHC biosensors) ranking mAbs 16-32 against mAb5). Conditions: compared to mAb5.
Type: binding
From the text: A further series of antibodies were designed in which the residue at Kabat position 31 of the heavy chain was varied (mAbs 16-32). In this case an alternate biolayer interferometry assay was used to initially rank the antibodies compared to mAb5, the closest relative in sequence to mAbs 16-32. MAbs were loaded onto anti-human constant domain (AHC) biosensors (FortdBio) in 10× kinetics buffer consisting of PBS, 0.1% BSA, 0.02% Tween 20 for 120 s to achieve a spectral shift value of 0.8 to 1.2 nm. Association was carried out in the presence of 2-fold dilution series of hIL-1 IR and was allowed to proceed for 120 s. Dilution series started 10 nM. The dissociation in 10× kinetics buffer for 1200 s. Binding kinetic measurements were taken on an Octet RED96e instrument.

qualitative assessment | Molecule
similar | B1
similar | B2
decreased | B3
similar | B4
decreased | B5
similar | B6
decreased | B7
